Assay results published in patent US20250074980A1 (BRIGHAM AND WOMEN S HOSPITAL, published 2025).
One block for each binder: values may come before it.

Legend:
[1] = target: T1, GST-CEACAM1 (human, UniProt P13688 35-141, limits assumed); test: competition ELISA: binding of human CEACAM1-GST (37.5 µg/ml) to human TIM-3 IgV domain tagless protein (3 µg/ml), anti-GST detection, OD 450 nm
T1 construct: also called human CEACAM1-GST protein
T1 sequence: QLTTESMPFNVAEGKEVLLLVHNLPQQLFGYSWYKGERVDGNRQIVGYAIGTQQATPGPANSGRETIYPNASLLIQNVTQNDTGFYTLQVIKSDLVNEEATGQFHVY
Procedure: The ability of the CEACAM1 antibodies to reduce the binding of CEACAM1 to TIM-3 was examined. […] In addition, human IgG4 antibody was used as a control (0-1000 nM). Goat polyclonal anti-GST-HSP antibody from Abcam (1:2000) was used and assays were developed by addition of TMB solution (Life technologies). OD values were read at 450 nm on a plate reader. Data was plotted in a Graphpad and best-fit IC-50 values were determined.

[2] = target: T2, CEACAM3 on transfected HeLa cells (human, UniProt P40198 35-252); test: flow cytometry, transfected HeLa
T2 construct: whole, on cells; also called HeLa-CEACAM3; HeLa C3
T2 sequence (looked up): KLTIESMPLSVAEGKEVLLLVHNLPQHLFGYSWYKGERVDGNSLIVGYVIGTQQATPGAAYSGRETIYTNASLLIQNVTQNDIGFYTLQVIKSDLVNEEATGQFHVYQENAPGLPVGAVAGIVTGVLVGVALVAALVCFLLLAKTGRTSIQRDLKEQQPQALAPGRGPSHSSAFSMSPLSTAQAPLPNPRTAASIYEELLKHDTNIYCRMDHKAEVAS
Summary of the method: (§1)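 Flow cytometry was done on HeLa cells stably expressing single CEACAM family members, cultured in DMEM with 10% fetal bovine serum at 37° C, 5.0% CO₂, and stained with the test antibody, then a fluorochrome-conjugated isotype-specific secondary antibody, with DAPI for viability. Staining of each transfectant serves as the readout of binding selectivity.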

[3] = target: T3, CEACAM8 on transfected HeLa cells (human, UniProt P31997 35-320); test: flow cytometry, transfected HeLa
T3 construct: whole, on cells; also called HeLa-CEACAM8; HeLa C8
T3 sequence (looked up): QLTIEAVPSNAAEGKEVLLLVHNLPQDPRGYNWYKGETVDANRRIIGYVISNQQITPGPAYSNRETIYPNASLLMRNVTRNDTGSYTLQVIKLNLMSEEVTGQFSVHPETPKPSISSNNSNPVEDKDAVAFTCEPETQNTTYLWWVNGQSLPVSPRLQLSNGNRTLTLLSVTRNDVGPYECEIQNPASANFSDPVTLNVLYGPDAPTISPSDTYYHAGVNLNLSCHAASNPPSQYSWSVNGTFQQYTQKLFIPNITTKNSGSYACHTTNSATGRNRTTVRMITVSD
Summary of the method: as §1

[4] = target: T4, CEACAM1 on transfected HeLa cells (human, UniProt P13688 35-526); test: flow cytometry, transfected HeLa
T4 construct: also called HeLa-CEACAM1; HeLa C1
T4 sequence: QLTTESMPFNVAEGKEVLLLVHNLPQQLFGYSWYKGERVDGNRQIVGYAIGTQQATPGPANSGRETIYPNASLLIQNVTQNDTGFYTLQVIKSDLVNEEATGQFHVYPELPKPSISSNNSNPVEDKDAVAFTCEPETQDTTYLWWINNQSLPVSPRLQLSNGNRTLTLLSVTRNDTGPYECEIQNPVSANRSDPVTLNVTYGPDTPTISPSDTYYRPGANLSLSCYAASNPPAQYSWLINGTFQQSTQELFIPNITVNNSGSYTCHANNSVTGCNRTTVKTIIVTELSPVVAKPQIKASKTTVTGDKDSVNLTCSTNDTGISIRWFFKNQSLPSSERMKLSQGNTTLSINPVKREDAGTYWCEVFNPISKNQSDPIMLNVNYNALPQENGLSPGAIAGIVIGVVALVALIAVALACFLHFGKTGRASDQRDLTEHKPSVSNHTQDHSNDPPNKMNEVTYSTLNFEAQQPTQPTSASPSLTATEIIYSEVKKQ

[5] = target: T5, CEACAM6 on transfected HeLa cells (human, UniProt P40199 35-320); test: flow cytometry, transfected HeLa
T5 construct: whole, on cells; also called HeLa-CEACAM6; HeLa C6
T5 sequence (looked up): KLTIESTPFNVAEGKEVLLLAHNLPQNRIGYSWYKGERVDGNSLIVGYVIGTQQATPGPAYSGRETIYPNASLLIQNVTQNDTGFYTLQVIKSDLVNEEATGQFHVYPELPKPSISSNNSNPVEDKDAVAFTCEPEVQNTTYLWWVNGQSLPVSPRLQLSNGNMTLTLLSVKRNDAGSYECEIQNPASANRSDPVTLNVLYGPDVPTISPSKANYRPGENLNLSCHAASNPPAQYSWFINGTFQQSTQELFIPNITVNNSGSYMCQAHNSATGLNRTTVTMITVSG

- IC50 [1]: 31.9 nM
B1: CP08H03/Vκ8 S29A (antibody, IgG4, V domains shown)
VH: EVQLLESGGGLVQPGGSLRLSCAASGFIFSSHGMSWVRQAPGKGLEWVATISSGGTYTYYPDSVKGRFTISRDNSKNTLYLQMNSLKAEDTAMYYCARHDFDYFPYWFAHWGQGTLVTVSS
VL: EIVLTQSPATLSLSPGERATLSCRANSAVSYMYWYQQKPGQAPRPWIYLTSNRATGVPARFSGSGSGTDYTLTISSLEPEDFAVYYCQQWSSNPPTFGQGTKLEIK
notes: IgG4 (S241P), kappa; also called CP08_H03/Parent VL; CP08_H03/Parental

- binding result [2]: no binding
- binding result [3]: no binding
- relative amount of cells bound [4]: 78
- relative amount of cells bound [5]: 0.3
B2: chimeric antibody VH0/Vκ0 (antibody, IgG4, V domains shown)
VH: EVQLVESGGDLVKPGGSLKLACAASGFIFSSHGMSWVRQTPDKRLEWVATISSGGTYTYYPDSVKGRFTISRDNDKNTLYLQMNSLKSEDTAMYYCARHDFDYDAAWFAYWGQGTLVTVSS
VL: QIVLTQSPALMSASPGVKVTMTCSANSSVSYMYWYRQKPRSSPKPWIYLTSNLASGVPARFSGSGSGTSYSLTISSMEAEDAATYYCQQWSSNPPTFGSGTKLEIK
notes: IgG4 (S241P), kappa; also called VH0/Vκ0 (control); Chimeric VH0/Vκ0
